Consider one substance from patent US6303653.

This data set relates to HNF-4alpha (transfected expression vector). The data set can be described thus: cell_activity. Particulars: COS-7 cotransfection, no added fatty acids.

On to “one to three C3P copies enhancing TK promoter CAT reporter”, for which the activity (fold activation) was 7.
